For data set [1], the target named is T1, SAP (Homo sapiens, UniProt P02743). The data set can be described thus: Human SAP in serum and organ extracts by electroimmunoassay, AA amyloidotic human SAP transgenic mice (Example 1). Conditions: for Human SAP concentrations in serum [mean (SD)]: post CPHPC before antibody day 0, CPHPC 1 mg/ml in drinking water. The data set is classed as in vivo, mouse. Further details: from tissue; host or cells: serum, spleen and liver of C57BL/6 mice with the mouse SAP gene deleted and transgenic for human SAP. The source says: In the present study AA amyloidosis was induced in mice by amyloid enhancing factor injection followed by repeated casein injections to elicit persistent acute inflammation and thus sufficiently sustained increase in SAA production to promote AA amyloid deposition in all animals. A unique strain of pure line C57BL/6 animals was used in which the mouse SAP gene has been deleted^13 and a human SAP transgene has been introduced^14, 15. […] We then treated three very closely matched groups as follows:
Systemic AA amyloidosis was induced in adult male (n=61) and female (n=32) pure line C57BL/6 mice with the mouse SAP gene deleted and which were transgenic for human SAP^15. Each mouse received a single dose of amyloid enhancing factor^9 by intravenous injection followed 4 days later by 10 daily subcutaneous injections of 10% w/v casein in solution in 0.1M NaHCO3 administered over a 12 day period^13. Seven days after the last casein injection, KI was introduced into the drinking water of all mice and 3 days later each mouse received an intravenous injection of a standard dose of ^125I-labelled human SAP^6,18. Four adult male and four female mice from the same colony but which had not received any other treatment were also given KI and ^125I-SAP as controls. All mice underwent whole body counting 24, 48, 72 96 and 168 h after the tracer injection to determine retention of radioactivity as an index of whole body amyloid load. […] The mice were then allocated to three closely matched groups with as close as possible to the same total numbers and sex distribution in each group. Ten days after the ^125I-SAP injection groups one and two were started on CPHPC in their drinking water at 1 mg/ml and continued on that treatment until the end of the experiment. Group three received no treatment at this or any later stage of the study. Five days after starting the CPHPC each animal in group one received an intraperitoneal injection comprising 1 ml of the whole IgG fraction of monospecific sheep anti-human SAP antiserum at 50 mg/ml containing 7 mg/ml of specific antibody in solution in phosphate buffered physiological saline. The antiserum was raised by immunisation of sheep with 100% pure human SAP. At the same time all animals in group 2 received an intraperitoneal injection comprising 1 ml of the whole IgG fraction of monospecific sheep anti-human oncostatin M receptor antiserum at 50 mg/ml in solution in phosphate buffered physiological saline. […] Twenty eight days after the intraperitoneal injections all mice were killed by bleeding out under terminal anaesthesia and the liver and spleen from each were removed. Each organ was weighed and then divided into three portions, one of which was also weighed and used for extraction of SAP, while the second portion was snap frozen for subsequent immunohistochemical and cytochemical analysis without fixation, and the last part was fixed in buffered formalin for routine histology and estimation of amyloid by Congo red staining^19. All mice were weighed at the time of assignment to the groups after induction of amyloidosis but before administration of ^125I-SAP. They were all weighed again before being killed at the end of the experiment. All mice were bled four times: (1) immediately before groups […] were started on CPHPC; (2) the day before injection of IgG preparations in groups […]; (3) 14 days after the IgG injections; (4) at the time of killing. Sections of spleen and liver of all animals stained with Congo red were independently examined by three different expert observers blinded to the treatment each mouse had received and scored for the amount of amyloid present as previously reported. The scores of 10^0-10^4 represent an approximately log base 10 ranking scale from 10^0, corresponding to one or two tiny specks of amyloidosis among several sections of a particular organ, to 10^4 corresponding to abundant widespread deposits comprising about 10,000 times more amyloid^13. […]

The target of data set [2] is T1, SAP. Put plainly: Treatment of a patient with systemic amyloidosis using CPHPC and anti-SAP antibody (Example 2). Type of data set: in vivo. Further details: Human SAP is a constitutive protein in the plasma; from tissue; host or cells: plasma/serum and amyloid deposits of human patients. Conditions: day after bolus intravenous 100 mg CPHPC. As for the experimental part: A patient suffering from systemic amyloidosis is diagnosed by clinical examination and routine investigations leading to suspicion of amyloidosis, followed by specific confirmation by expert histochemical examination of biopsies of affected tissues. Radiolabelled SAP scintigraphy is performed in the UK NHS National Amyloidosis Centre at the Centre for Amyloidosis and Acute Phase Proteins in the Department of Medicine of University College London at the Royal Free Hospital. […] Routine clinical investigations of organ function establish the extent and severity of tissue and organ damage caused by the amyloid deposits, as well as the presence and severity of any underlying primary disease which may have led to amyloid deposition.
The patient is treated with the SAP depleting drug, CPHPC, administered by bolus intravenous injection of a dose of 100 mg. The following day a blood sample is taken. This confirms by specific immunoassay that the SAP concentration in the serum has been reduced by 90%. An intravenous infusion of anti-SAP antibody is then commenced and over a period of several hours a dose of 1000 mg of antibody is administered sufficient to bind to SAP within the amyloid deposits throughout the body. CPHPC is administered parenterally twice daily for the next two weeks, to ensure that plasma SAP values remain suppressed. […]

Data set [3] has as its target T1, SAP. Put plainly: CPHPC administration in human systemic amyloidosis patients. The settings on record: after months of continuous CPHPC administration. The data set is classed as in vivo. Further details: Human SAP is a constitutive protein in the plasma; from tissue; host or cells: plasma/serum and amyloid deposits of human patients.
Data set [4] deals with T1, SAP. Also noted: Human SAP is a constitutive protein in the plasma; from tissue; host or cells: plasma/serum and amyloid deposits of human patients. The settings on record: in vivo; cited from earlier work.
The conditions of data set [5]: cited from earlier work.
Data set [6] deals with human SAP complexed with CPHPC and covalently cross-linked with BS3 (human) (UniProt P02743). The data set can be described thus: IRMA, SAP-CPHPC complex covalently immobilised, in EDTA, radiolabelled sheep anti-mouse IgG, mean n=3.
human SAP complexed with CPHPC and covalently cross-linked with BS3 (human), sequence (P02743 20-223, one chain of several): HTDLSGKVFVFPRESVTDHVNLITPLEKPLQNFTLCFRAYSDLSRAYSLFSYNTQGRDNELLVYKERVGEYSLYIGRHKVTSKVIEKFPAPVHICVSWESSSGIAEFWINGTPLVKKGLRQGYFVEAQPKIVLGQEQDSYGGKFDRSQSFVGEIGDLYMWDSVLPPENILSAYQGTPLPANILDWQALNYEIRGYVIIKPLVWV
In data set [7] the target is human serum amyloid P component (SAP), isolated pure, native (human) (UniProt P02743). The data set can be described thus: IRMA, SAP alone captured on immobilised sheep polyclonal anti-human SAP, in calcium, radiolabelled sheep anti-mouse IgG, mean n=3.
human serum amyloid P component (SAP), isolated pure, native (human), sequence (P02743 20-223): as the sequence (P02743 20-223, one chain of several) above
Data set [8] has the same target. The data set can be described thus: IRMA, SAP non-covalently immobilised, antibody at 0.1 ug/ml, detection polyvalent anti-mouse IgG.
The target is the same in data set [9]. Put plainly: Biacore (SPR), isolated pure SAP alone immobilised on the chip. (In general: In SPR one partner is held on a chip, and binding of the other changes the refractive index at the surface.)
For data set [10] the target is unchanged. The data set can be described thus: IRMA, SAP non-covalently immobilised, antibody at 1 ug/ml, detection polyvalent anti-mouse IgG.
For data set [11] the target is unchanged. Put plainly: IRMA, SAP non-covalently immobilised, antibody at 0.01 ug/ml, detection anti-mouse IgG2a.
The target is the same in data set [12]. The data set can be described thus: IRMA, SAP non-covalently immobilised, antibody at 0.001 ug/ml, detection polyvalent anti-mouse IgG.
The target is the same in data set [13]. The data set can be described thus: IRMA, SAP non-covalently immobilised, antibody at 10 ug/ml, detection anti-mouse IgG2a.
The target is the same in data set [14]. Put plainly: IRMA, SAP non-covalently immobilised, antibody at 10 ug/ml, detection polyvalent anti-mouse IgG.
Data set [15] shares this target. Put plainly: IRMA, SAP alone covalently immobilised, in calcium, radiolabelled sheep anti-mouse IgG, mean n=3.
The target is the same in data set [16]. Put plainly: IRMA, SAP non-covalently immobilised, antibody at 100 ug/ml, detection anti-mouse IgG2a.
The target of data set [17] is human SAP complexed with CPHPC and covalently cross-linked with BS3 (human) (UniProt P02743). Put plainly: IRMA, SAP-CPHPC complex captured on immobilised sheep polyclonal anti-human SAP, in calcium, radiolabelled sheep anti-mouse IgG, mean n=3.
The target in data set [18] is human serum amyloid P component (SAP), isolated pure, native (human) (UniProt P02743). Put plainly: IRMA, SAP alone covalently immobilised, in EDTA, radiolabelled sheep anti-mouse IgG, mean n=3.
The target is the same in data set [19]. The data set can be described thus: IRMA, SAP non-covalently immobilised, antibody at 0.1 ug/ml, detection anti-mouse IgG2a.
The target is the same in data set [20]. The data set can be described thus: IRMA, SAP non-covalently immobilised, antibody at 1 ug/ml, detection anti-mouse IgG2a.
The target of data set [21] is human SAP complexed with CPHPC and covalently cross-linked with BS3 (human) (UniProt P02743). Put plainly: IRMA, SAP-CPHPC complex covalently immobilised, in calcium, radiolabelled sheep anti-mouse IgG, mean n=3.
Data set [22] has as its target human serum amyloid P component (SAP), isolated pure, native (human) (UniProt P02743). Put plainly: IRMA, SAP non-covalently immobilised, antibody at 100 ug/ml, detection polyvalent anti-mouse IgG.
Data set [23] shares this target. The data set can be described thus: IRMA, SAP non-covalently immobilised, antibody at 0.01 ug/ml, detection polyvalent anti-mouse IgG.
Data set [24] has the same target. Put plainly: IRMA, SAP non-covalently immobilised, antibody at 0.001 ug/ml, detection anti-mouse IgG2a.

T1 sequence (P02743 20-223): as the sequence (P02743 20-223, one chain of several) above

On to `O=C(O)[C@H]1CCCN1C(=O)CCCCC(=O)N1CCC[C@@H]1C(=O)O` [CPHPC, (R)-1-[6-[(R)-2-Carboxy-pyrrolidin-1-yl]-6-oxo-hexanoyl]pyrrolidine-2-carboxylic acid], for which the entries for the “Human SAP concentrations in serum [mean (SD)]” value at SAP [1] (females) and at SAP [1] (males) were 4.0 (1.4) mg/l and 2.9 (1.3) mg/l, respectively. For the same compound, the “Human SAP concentrations in serum” value on SAP [1] (females, post antibody day 14) was “trace”; at SAP [1] (females, post antibody day 28), “trace”; at SAP [1] (males, post antibody day 14), “trace”; at SAP [1] (males, post antibody day 28), “trace”. In addition, at SAP [2], the “Reduction of SAP concentration in the serum” value was found to be 90%. Further, the “Greatest depletion of SAP from amyloid deposits” value on SAP [3] was “about 90%”. Also, the “Tolerability / adverse effects” value on SAP [4] is listed as “extremely well tolerated”.
Regarding “human SAP: isolated pure human SAP injected to load amyloid deposits”, the “Half time of persistence in amyloid deposits” value in [5] (amyloidotic mice) is 3 to 4 days. Besides, the “Half life of clearance from the circulation” value in data set [5] (human SAP not bound to amyloid) was 3 to 4 h.
One may read the koff as the first-order rate constant of dissociation. What is called kon is a measure of how fast the partners come together. Lower therefore signals slower complex formation. On to “mouse monoclonal anti-human SAP antibody SAP-5”, for which the Activity bound (d.p.m.) in [6] is 5140 d.p.m; in [7] it was 9310 d.p.m; in data set [8], 4560 d.p.m; in data set [10], 12100 d.p.m; in [11], 222 d.p.m; in data set [12] it was 195 d.p.m. Also, the Activity bound (d.p.m.) in data set [13] worked out at 1980 d.p.m; in data set [14], 15400 d.p.m; in data set [15], 5580 d.p.m; in [16] it was 2200 d.p.m; in data set [17], 7120 d.p.m; in data set [18], 4050 d.p.m. For the same compound, the Activity bound (d.p.m.) was determined as 589 d.p.m in data set [19]; 1650 d.p.m in data set [20]; 6160 d.p.m in [21]; 16200 d.p.m in [22]; 902 d.p.m in data set [23]; 94 d.p.m in [24]. Further, in data set [9], the koff was 6e-05 s⁻¹. Besides, the on-rate constant (kon) in data set [9] was 20000 M⁻¹ s⁻¹.

The values are drawn from patent US7910106B2, “Combinations of SAP depleting agents and anti-SAP antibodies” (Pentraxin Therapeutics Ltd., priority 2007, dated 2011).
